Assay results taken from the supplement of paper PMC9112550, “Optimization of the antimicrobial peptide Bac7 by deep mutational scanning” (BMC Biology, 2022).

System: Escherichia coli TOP10
Assay: shrunken log2 fold change of peptide-encoding DNA abundance (4.5 h post-induction vs induction); higher = less antimicrobial activity (less host growth inhibition)
Conditions: time post-induction: 4.5 h; library: site-saturation at positions 5, 18, 19, 20
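Also: peptides expressed intracellularly from a pBAD plasmid library in pooled LB shake-flask culture, induced with 0.3% L-arabinose, DNA abundance read by NGS, three biological replicates, DESeq2 with apeglm shrinkage.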

| Sequence | shrunken log2 fold change |
| --- | --- |
| RRIRVRPPRLPRPRPRPGYDPRP | -0.422 |
| RRIRVRPPRLPRPRPRPHAAPRP | 0.156 |
| RRIRVRPPRLPRPRPRPHACPRP | 0.0734 |
| RRIRVRPPRLPRPRPRPHDFPRP | -0.00674 |
| RRIRVRPPRLPRPRPRPHEIPRP | 0.026 |
| RRIRVRPPRLPRPRPRPHFRPRP | -0.0776 |
| RRIRVRPPRLPRPRPRPHFVPRP | -0.0262 |
| RRIRVRPPRLPRPRPRPHGGPRP | -0.0243 |
| RRIRVRPPRLPRPRPRPHHIPRP | -0.386 |
| RRIRVRPPRLPRPRPRPHKDPRP | -0.36 |
| RRIRVRPPRLPRPRPRPHKPPRP | -0.0132 |
| RRIRVRPPRLPRPRPRPHLTPRP | -0.333 |
| RRIRVRPPRLPRPRPRPHNDPRP | -0.318 |
| RRIRVRPPRLPRPRPRPHPFPRP | -0.0878 |
| RRIRVRPPRLPRPRPRPHPHPRP | -0.161 |
| RRIRVRPPRLPRPRPRPHPIPRP | -0.0473 |
| RRIRVRPPRLPRPRPRPHPQPRP | -0.0987 |
| RRIRVRPPRLPRPRPRPHQNPRP | -0.296 |
| RRIRVRPPRLPRPRPRPHRGPRP | -0.0736 |
| RRIRVRPPRLPRPRPRPHRTPRP | -0.16 |
| RRIRVRPPRLPRPRPRPHSDPRP | 0.0538 |
| RRIRVRPPRLPRPRPRPHSNPRP | -0.505 |
| RRIRVRPPRLPRPRPRPHSYPRP | -0.262 |
| RRIRVRPPRLPRPRPRPHWFPRP | -0.11 |
| RRIRVRPPRLPRPRPRPHWKPRP | -0.14 |

| Sequence | shrunken log2 fold change |
| --- | --- |
| RRIRVRPPRLPRPRPRPHWPPRP | -0.122 |
| RRIRVRPPRLPRPRPRPHYDPRP | -0.379 |
| RRIRVRPPRLPRPRPRPHYIPRP | -0.589 |
| RRIRVRPPRLPRPRPRPHYVPRP | 0.0323 |
| RRIRVRPPRLPRPRPRPHYWPRP | -0.336 |
| RRIRVRPPRLPRPRPRPICVPRP | -0.0314 |
| RRIRVRPPRLPRPRPRPIESPRP | -0.0725 |
| RRIRVRPPRLPRPRPRPIETPRP | 0.0184 |
| RRIRVRPPRLPRPRPRPIFAPRP | 0.231 |
| RRIRVRPPRLPRPRPRPIHNPRP | -0.554 |
| RRIRVRPPRLPRPRPRPIHYPRP | -0.137 |
| RRIRVRPPRLPRPRPRPIIAPRP | -0.195 |
| RRIRVRPPRLPRPRPRPIMSPRP | -0.0851 |
| RRIRVRPPRLPRPRPRPINCPRP | -0.12 |
| RRIRVRPPRLPRPRPRPINMPRP | -0.602 |
| RRIRVRPPRLPRPRPRPINSPRP | -0.022 |
| RRIRVRPPRLPRPRPRPINYPRP | -0.348 |
| RRIRVRPPRLPRPRPRPIPCPRP | -0.0881 |
| RRIRVRPPRLPRPRPRPIPLPRP | -0.107 |
| RRIRVRPPRLPRPRPRPIPRPRP | 0.0796 |
| RRIRVRPPRLPRPRPRPIRLPRP | -0.419 |
| RRIRVRPPRLPRPRPRPIRTPRP | 0.782 |
| RRIRVRPPRLPRPRPRPIRVPRP | -0.473 |
| RRIRVRPPRLPRPRPRPISFPRP | 0.0233 |
| RRIRVRPPRLPRPRPRPISHPRP | -0.326 |

| Sequence | shrunken log2 fold change |
| --- | --- |
| RRIRVRPPRLPRPRPRPISKPRP | -0.184 |
| RRIRVRPPRLPRPRPRPISNPRP | -0.512 |
| RRIRVRPPRLPRPRPRPITAPRP | -0.272 |
| RRIRVRPPRLPRPRPRPITPPRP | 0.12 |
| RRIRVRPPRLPRPRPRPIVSPRP | -0.187 |
| RRIRVRPPRLPRPRPRPIYAPRP | -0.0133 |
| RRIRVRPPRLPRPRPRPIYCPRP | -0.113 |
| RRIRVRPPRLPRPRPRPIYHPRP | -0.461 |
| RRIRVRPPRLPRPRPRPIYTPRP | -0.279 |
| RRIRVRPPRLPRPRPRPKAHPRP | -0.00647 |
| RRIRVRPPRLPRPRPRPKCHPRP | -0.242 |
| RRIRVRPPRLPRPRPRPKCPPRP | 0.0181 |
| RRIRVRPPRLPRPRPRPKDCPRP | -0.107 |
| RRIRVRPPRLPRPRPRPKDIPRP | -0.642 |
| RRIRVRPPRLPRPRPRPKDWPRP | 0.0589 |
| RRIRVRPPRLPRPRPRPKESPRP | -0.0206 |
| RRIRVRPPRLPRPRPRPKFCPRP | -0.137 |
| RRIRVRPPRLPRPRPRPKFFPRP | -0.0182 |
| RRIRVRPPRLPRPRPRPKGGPRP | 0.0495 |
| RRIRVRPPRLPRPRPRPKGTPRP | -0.171 |
| RRIRVRPPRLPRPRPRPKIGPRP | -0.0842 |
| RRIRVRPPRLPRPRPRPKIHPRP | -0.205 |
| RRIRVRPPRLPRPRPRPKKDPRP | -0.262 |
| RRIRVRPPRLPRPRPRPKQHPRP | -0.301 |
| RRIRVRPPRLPRPRPRPKQQPRP | 0.0386 |
